The results in this text go back to patent US11807881B2, “Polypeptide, fusion polypeptide, and antibiotic against gram-negative bacteria comprising same” (priority 2020, dated 2023).

Common to all, as to format: cell-based
Series [1] relates to gram negative bacterium (Pseudomonas aeruginosa (PA01; ATCC 15692) and Acinetobacter baumannii (ATCC 19606)). The series is described as follows: NPN uptake assay (outer membrane permeabilization). The procedure:
In order to evaluate the outer membrane permeabilization activity of the gram negative bacterium of the fusion polypeptide prepared in the Example 3.2, NPN uptake assay was performed. As representative gram negative bacterium, Pseudomonas aeruginosa and Acinetobacter baumannii were used for the test.
Pseudomonas aeruginosa (PA01; ATCC 15692) or Acinetobacter baumannii (ATCC 19606) was cultured by OD600=0.3 and centrifuged at 1,000 g for 10 minutes, and then it was resuspended with a ½ volume of 5 mM HEPES (Hydroxyethyl piperazine Ethane Sulfonic acid) (pH 7.2). 40 μM NPN (1-N-phenylnaphthylamine) solution (40 μM NPN in 5 mM HEPES, pH7.2) 50 μl, the test substance (LNT101, LNT102 or LNT103) 50 μl, and strain suspension solution 100 μl (total 200 μl) were added to a microplate and reacted at 37° C. for 1 hour. Then, fluorescence was measured under the condition of excitation 350 nm and emission 420 nm with a microplate reader (Infinite M200 Pro, TECAN). As a positive control group, Cecropin A (SEQ ID NO: 8), EDTA, or polymyxin B was used, and as a negative control group, 10 μM NPN solution was used. All the experiments were performed in 3 sets. […]

The subject of a further series is Huh-7 cell line. The procedure:
In vitro toxicity of the fusion polypeptide LNT103 was evaluated by cell cytotoxicity assay (WST assay) using Huh-7 cell line and hemolysis assay using sheep blood (MB cell).
The process of progressing the cell cytotoxicity assay was as follows. The Huh07 cell culture solution was prepared and aliquoted in an amount of […] per well in a 96 well plate, and it was cultured in a CO2 incubator for 24 hours. Then, PBS as a negative control and 1% (w/v) triton X-100 as a positive control were treated, and as an experimental group, the fusion polypeptide LNT103 was treated at a concentration of 0.25, 0.5, or 1 mg/ml, and then it was left in a CO2 incubator for 24 hours and 48 hours. Then, the cell viability was measured using D-Plus™ CCK cell viability assay kit (Dongin LS), and the result was shown in FIG. 18.

The next series has as its system E. coli. The series is described as follows: MIC and MBC, broth microdilution in CAA media. The procedure: In addition, MIC (Minimal Inhibitory Concentration) and MBC (Minimal Bactericidal Concentration) of the fusion polypeptide LNT103 were measured. […] Specifically, the LNT103 was treated at a concentration of 64 μg/ml to a 96 well microplate row A, and the LNT103 was treated at a concentration where serial dilution was performed by ½ in rows B-G. To the row H, LNT103 was not treated. After that, the corresponding bacterium strain (type or QC, CCARM and clinical separation strain; See Tables 2-4) was treated in an amount of 5×10^5 CFU/ml, total 100 μl in all wells. Then, it was cultured at 37° C. for 18 hours. MIC was determined to be the lowest concentration at which no colonies were identified by confirming the number of the colonies in each well.
For orientation: Broth dilution looks for growth in wells or tubes with falling amounts of substance.

Another series relates to Pseudomonas aeruginosa. Description: CFU reduction test (killing ability in vitro). As for the experimental part:
For this, the endolysin LNT101 at a concentration of 0.1, 0.5, 1.0 μM and Pseudomonas aeruginosa (ATCC 13388) […] CFU were added so that the final volume was 200 μl to reaction buffer (20 mM Tris-Cl, pH 7.5) and they were left at 37° C. for […]. In 30 minutes, 1 hour and 2 hours, the number of colonies of Pseudomonas aeruginosa was confirmed, and the result was shown in FIG. 3.
In addition, that the LNT101 endolysin had the antibacterial ability in various gram negative bacterium was confirmed by a CFU reduction test, and the result was shown in Table 2 below.

B1: LNT103: fusion polypeptide [Cecropin A]-[linker (GSGSGS)]-[endolysin LNT102]; SEQ ID NO: 15 (MAS, His tag) used in the tests (protein)
chain: MASKWKLFKKIEKVGQNIRDGIIKAGPAVAVVGQATQIAKGSGSGSMGTVLKRGDRGSAVEDLQMKLNVAGYNLSADGIFGGDTEKAVRDVQAGAGLVVDGKVGPKTLYAIAKSATVPAKWEAIPFPTANKSRSAAMPTLNAVGAMTGVDSRLLATFASIESAFDYTVKAKTSSATGWFQFLDATWDDMIKAYGSKYGIPKDPTRALRKDPRANALMGAEFIKGNAAVLRPVINREPSDTDLYLAHFLGAGGAKKFLSADQKTLGEVLFPKPAKANPSIFSNKGVPRTLAEIYKLFEDKVSKHRALEHHHHHH
modifications: synthetic_Fusion Polypeptide LNT103 with MAS, His tag, and extra sequence
For orientation: MBC means the smallest concentration meeting the test's criterion for killing. Read a high MBC as less potent killing. Broadly, the MIC is the smallest concentration in the dilution series that meets the test's criterion for growth inhibition. A lower MIC goes with inhibition by little substance. B1: in series [1] (2 μM, 37° C. 1 hour, compared with LNT101, LNT102, cecropin A 2 μM, polymyxin B 2 μM, EDTA 1 mM), the “outer membrane permeabilization activity (NPN uptake, fold change over control)” value was “higher outer membrane permeabilization activity against gram negative bacterium than the polypeptides LNT101 and LNT102 at the same concentration”. For the same molecule, the “outer membrane permeabilization activity (NPN uptake, fold change over negative control)” value in series [1] (LNT103 0.29 μM, 0.88 μM, 2.65 μM) was “increased in a concentration-dependent manner”. Also, the “IC50 (cytotoxicity)” value in the series with Huh-7 cell line is greater than 1000 µg/mL. The MBC against E. coli (E. coli ATCC 8739) came to 8 µg/mL; in the series on E. coli (E. coli CCARM 1A746), 8 µg/mL; in the series with E. coli (E. coli CCARM 1B684), 8 µg/mL; in the series with E. coli (E. coli CCARM 1G448), 4 µg/mL; in the series on E. coli (E. coli CCARM 1460), 4 µg/mL; against E. coli (E. coli F340), 16 µg/mL. Besides, the MBC was 8 µg/mL in the series with E. coli (E. coli F481); 8 µg/mL against E. coli (E. coli F485); 16 µg/mL with E. coli (E. coli F524); 32 µg/mL in the series on E. coli (E. coli F716); 32 µg/mL with E. coli (E. coli F852); 32 µg/mL against E. coli (E. coli F859). For the same molecule, the MBC against E. coli (E. coli F862) was found to be 4 µg/mL; with E. coli (E. coli FORC81), 4 µg/mL; against E. coli (E. coli UPEC 3042) it was 32 µg/mL; with E. coli (E. coli UPEC 3181) it was 8 µg/mL. Moreover, the minimum inhibitory concentration (MIC) against E. coli (E. coli ATCC 8739) came to 8 µg/mL; against E. coli (E. coli CCARM 1A746) it was 8 µg/mL; against E. coli (E. coli CCARM 1B684), 4 µg/mL; against E. coli (E. coli CCARM 1G448), 4 µg/mL; in the series on E. coli (E. coli CCARM 1460) it was 4 µg/mL; in the series on E. coli (E. coli F340) it was 16 µg/mL. The MIC against E. coli (E. coli F481) stood at 8 µg/mL; against E. coli (E. coli F485), 4 µg/mL; with E. coli (E. coli F524), 16 µg/mL; in the series on E. coli (E. coli F716) it was 16 µg/mL; with E. coli (E. coli F852), 16 µg/mL; in the series with E. coli (E. coli F859), 32 µg/mL. For the same molecule, the MIC in the series with E. coli (E. coli F862) is 4 µg/mL; against E. coli (E. coli FORC81) it was 4 µg/mL; against E. coli (E. coli UPEC 3042), 32 µg/mL; against E. coli (E. coli UPEC 3181) it was 8 µg/mL.

B2: LNT101: endolysin derived from bacteriophage PBPA90, amino acid sequence SEQ ID NO: 1 (259 aa), purified with 6× His tag (protein)
chain: MGTVLKRGDRGSAVEDLQMKLRVAGYAVSADGIFGGDTEKAVRDFQASKALVVDGKVGPATLAELAKSATVPAKWEAIPFPTANKSRSAAMPTLNAVGAMTGTDSRLLATFASIESAFDYTVKASTSSATGWFQFLDATWDDMIKAHGSKYGIPKDPTRALRKDPRANALMGAEFLKGNAAVLRPVINREPSDTDLYLAHFLGAGGAKKFLSADQKTLGEVLFPKPAKANPSIFSNKGVPRTLAEIYKLFEDKVSKHRA
modifications: 6xHis tag; synthetic_Endolysin LNT101
Turning to B2, the “killing ability against Pseudomonas aeruginosa (number of colonies)” value in the series on Pseudomonas aeruginosa (ATCC 13388 10^6 CFU, 0.1, 0.5, 1.0 μM, 30 minutes, 1 hour and 2 hours, 37° C.) was “had the killing ability against Pseudomonas aeruginosa in all the tested treatment dose and time”. Also, the CFU reduction result with Pseudomonas aeruginosa (P. aeruginosa ATCC 13388), in the series with Pseudomonas aeruginosa (P. aeruginosa ATCC 15522), in the series on Pseudomonas aeruginosa (P. aeruginosa CCARM 2092), with Pseudomonas aeruginosa (P. aeruginosa CCARM 2134), in the series with Pseudomonas aeruginosa (P. aeruginosa CCARM 2144) and with Pseudomonas aeruginosa (P. aeruginosa CCARM 2326) was “◯ (‘◯’ means reduction of 0.5 log CFU or more through the CFU reduction assay)” each time. Also, the CFU reduction entry in the series on Pseudomonas aeruginosa (P. aeruginosa F141) and with Pseudomonas aeruginosa (P. aeruginosa PAO1) was “◯ (‘◯’ means reduction of 0.5 log CFU or more through the CFU reduction assay)” in each case.
